Test results as given in article doi:10.1101/2024.05.08.592267, “Origins and diversity of pan-isotype human bone marrow plasma cells” (bioRxiv, 2024).

Target: T1, biotinylated natural Ara h 2 (Arachis hypogaea (peanut), natural …, UniProt Q6PSU2, biotin (position not given))
T1 construct: Ara h 2, peanut allergen, 'natural' (not recombinant) protein; Natural Ara h 2 from peanut may be a mixture of isoforms; also called Biotin Natural Ara h 2; source: bought: InBio (biotinylated natural Ara h 2)
Assay: BLI; in-tandem epitope binning; biotinylated natural Ara h 2 loaded on streptavidin sensors; primary mAbs 10 ug/mL, secondary mAbs 5 ug/mL in kinetics buffer (Dulbecco's PBS, 1% BSA, 0.02% Tween-20); Octet R2
Details: both partners purified

T1 sequence (Q6PSU2 whole entry, looked up, canonical isoform): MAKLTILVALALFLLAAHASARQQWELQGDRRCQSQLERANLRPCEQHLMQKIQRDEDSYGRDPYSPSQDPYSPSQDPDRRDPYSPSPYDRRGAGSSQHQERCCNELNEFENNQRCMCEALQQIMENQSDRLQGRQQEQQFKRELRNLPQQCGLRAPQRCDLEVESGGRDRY

- binding result: binds
B1: 13T5 (monoclonal Ara h 2 specific antibody, Epitope 2) (antibody, V domains shown)
VH: QVQLQESGPGLVKPSETLSLTCTVSGGSMSSYYWGWIRQPAGRGLEWIGRIFTTGSTIYNASLNSRVSMSVDTSKNQFSLKLTSVTAADTALYFCVRDRRGRSHDSNWYWYFDLWGRGTLVTVSS
VL: DIVMTQSPSSLSASVGDRVIITCRTSQTLSRNLNWYQQKPGEAPKLLIYGASTLQSGVPSRFTGSGSGTDFTLIISSLQPEDFATYYCQQSDNTPRTFGQGTKVEIK
